Measured values taken from patent US20250196025A1.

Key:
IgG (Gammanorm) [1] = assay: SPR (Biacore), variant amine-coupled to CM5 chip, Gammanorm as analyte, 1:1 kinetic fit
IgG (Gammanorm) [2] = assay: SPR (Biacore), variant amine-coupled to CM5 chip, Gammanorm as analyte, steady state affinity fit

Row | Binder | Kd (IgG (Gammanorm) [1]) [nM] | Kd (IgG (Gammanorm) [2]) [nM]
1 | Protein L variant pAM239 (domain B4-1; H10, H45, Q60) (protein) PKEEVTIKAHLIYADGKTQTAEFKGTFAEATAEAYRYADLLAKEHGKYTADLEDGGYTIQIRFAGKKVDEKPEE | 17 | 60
2 | Protein L variant pAM244 (domain C2b-1; H10, H45, Q60) (protein) PKEEVTIKVHLIFADGKTQTAEFKGTFEEATAKAYAYADLLAKEHGEYTADLEDGGYTIQIKFAGKETPETPEE | 18 | 50
3 | Protein L variant pAM249 (domain B1-2; H10, H45, Y60) (protein) SEEEVTIKAHLIFANGSTQTAEFKGTFEKATSEAYAYADTLKKDHGEYTVDVADKGYTLYIKFAGKEKTPEE | 29 | 79
4 | Protein L variant pAM235 (domain B1-1; H10, H45, Q60) (protein) SEEEVTIKAHLIFANGSTQTAEFKGTFEKATSEAYAYADTLKKDHGEYTVDVADKGYTLQIKFAGKEKTPEE | 42 | 101
5 | Protein L variant pAM251 (domain B2-2; H10, H45, Y60) (protein) PKEEVTIKAHLIYADGKTQTAEFKGTFEEAAAEAYRYADALKKDHGEYTVDVADKGYTLYIKFAGKEKTPEE | 20 | 55
6 | Protein L variant pAM237 (domain B2-1; H10, H45, Q60) (protein) PKEEVTIKAHLIYADGKTQTAEFKGTFEEAAAEAYRYADALKKDHGEYTVDVADKGYTLQIKFAGKEKTPEE | 27 | 72
7 | Protein L variant pAM238 (domain B3-1; H10, H45, Q60) (protein) PKEEVTIKAHLIYADGKTQTAEFKGTFEEATAEAYRYADLLAKEHGKYTVDVADKGYTLQIKFAGKEKTPEE | 25 | 82
8 | Protein L variant pAM246 (domain C3b-1; H10, H45, Q60) (protein) PKEEVTIKVHLIFADGKIQTAEFKGTFEEATAKAYAYADLLAKEHGEYTADLEDGGYTIQIKFAGKETPETPEE | 17 | 49
9 | Protein L variant pAM257 (domain C2-2; H10, H45, Y60) (protein) PKEEVTIKVHLIFADGKTQTAEFKGTFEEATAKAYAYADLLAKEHGEYTADLEDGGNTIYIKFAGKETPETPEE | 47 | 98
10 | Protein L variant pAM245 (domain C3-1; H10, H45, Q60) (protein) PKEEVTIKVHLIFADGKIQTAEFKGTFEEATAKAYAYANLLAKEHGEYTADLEDGGNTIQIKFAGKETPETPEE | 65 | 134
11 | Protein L variant pAM259 (domain C3-2; H10, H45, Y60) (protein) PKEEVTIKVHLIFADGKIQTAEFKGTFEEATAKAYAYANLLAKEHGEYTADLEDGGNTIYIKFAGKETPETPEE | 55 | 120
12 | Protein L variant pAM260 (domain C3b-2; H10, H45, Y60) (protein) PKEEVTIKVHLIFADGKIQTAEFKGTFEEATAKAYAYADLLAKEHGEYTADLEDGGYTIYIKFAGKETPETPEE | 18 | 51
13 | Protein L variant pAM258 (domain C2b-2; H10, H45, Y60) (protein) PKEEVTIKVHLIFADGKTQTAEFKGTFEEATAKAYAYADLLAKEHGEYTADLEDGGYTIYIKFAGKETPETPEE | 17 | 45
14 | Protein L variant pAM243 (domain C2-1; H10, H45, Q60) (protein) PKEEVTIKVHLIFADGKTQTAEFKGTFEEATAKAYAYADLLAKEHGEYTADLEDGGNTIQIKFAGKETPETPEE | 39 | 83

Now those with a lower Kd (IgG (Gammanorm) [1]), led by results:

Row | Kd (IgG (Gammanorm) [1]) [nM] | Kd (IgG (Gammanorm) [2]) [nM] | Binder
15 | 14 | 54 | Protein L variant pAM253 (domain B4-2; H10, H45, Y60) (protein) PKEEVTIKAHLIYADGKTQTAEFKGTFAEATAEAYRYADLLAKEHGKYTADLEDGGYTIYIRFAGKKVDEKPEE
16 | 11 | 48 | Protein L variant pAM262 (domain D1-2; H10, H45, Y60) (protein) PKEEVTIKAHLIFADGKTQTAEFKGTFEEATAEAYRYADLLAKVHGEYTADLEDGGYTIYIKFAGKEQPGEN
17 | 16 | 56 | Protein L variant pAM248 (domain D1-1; H10, H45, Q60) (protein) PKEEVTIKAHLIFADGKTQTAEFKGTFEEATAEAYRYADLLAKVHGEYTADLEDGGYTIQIKFAGKEQPGEN
18 | 9 | 38 | Protein L variant pAM247 (domain C4-1; H10, H45, Q60) (protein) PKEEVTIKVHLIFADGKTQTAEFKGTFEEATAEAYRYADLLAKVHGEYTADLEDGGYTIQIKFAGKEQPGENPG
19 | 12 | 43 | Protein L variant pAM261 (domain C4-2; H10, H45, Y60) (protein) PKEEVTIKVHLIFADGKTQTAEFKGTFEEATAEAYRYADLLAKVHGEYTADLEDGGYTIYIKFAGKEQPGENPG
20 | 16 | 69 | Protein L variant pAM252 (domain B3-2; H10, H45, Y60) (protein) PKEEVTIKAHLIYADGKTQTAEFKGTFEEATAEAYRYADLLAKEHGKYTVDVADKGYTLYIKFAGKEKTPEE
